According to article PMC3686109:

Target: streptavidin (UniProt P22629 25-183)
Assay: aptamer microarray

Sequence of streptavidin (P22629 25-183): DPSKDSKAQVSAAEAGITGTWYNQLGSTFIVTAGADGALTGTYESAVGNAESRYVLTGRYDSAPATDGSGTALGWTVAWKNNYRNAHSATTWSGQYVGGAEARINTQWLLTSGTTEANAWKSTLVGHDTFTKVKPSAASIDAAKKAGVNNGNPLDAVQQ

B1: St-2-1_T11 (structured_DNA)
DNA: ATTGACCGCTGTGTGACGCAACACTCAATTTTTTTTTTTT
B1: binds.
